# Reference: patent US9353390B2, “Genetically engineered microbes and methods for producing 4-hydroxycoumarin” (University of Georgia Research Foundation, Inc., priority 2013, dated 2016)
# Values joined by “and” are separate entries in the source; they are usually repeats but may differ in a detail not shown here. Equal values may be shown once.
# T1: EntC, isochorismate synthase from E. coli MG1655 (purified, N-terminal His tag) (Escherichia coli, UniProt P0AEJ2)
# T1 sequence (P0AEJ2 1-391): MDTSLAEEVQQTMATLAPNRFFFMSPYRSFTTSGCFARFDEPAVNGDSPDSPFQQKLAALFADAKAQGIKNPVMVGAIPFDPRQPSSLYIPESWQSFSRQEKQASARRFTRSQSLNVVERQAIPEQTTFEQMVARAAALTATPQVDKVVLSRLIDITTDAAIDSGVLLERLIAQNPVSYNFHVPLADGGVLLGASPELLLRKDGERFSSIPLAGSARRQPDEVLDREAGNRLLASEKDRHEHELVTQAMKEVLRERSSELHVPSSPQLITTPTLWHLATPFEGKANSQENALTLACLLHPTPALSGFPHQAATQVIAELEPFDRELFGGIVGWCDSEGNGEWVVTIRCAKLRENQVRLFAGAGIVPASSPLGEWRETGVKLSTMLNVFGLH
# T2: MenF, isochorismate synthase from E. coli MG1655 (purified, N-terminal His tag) (Escherichia coli, UniProt P38051)
# T2 sequence (P38051 1-431): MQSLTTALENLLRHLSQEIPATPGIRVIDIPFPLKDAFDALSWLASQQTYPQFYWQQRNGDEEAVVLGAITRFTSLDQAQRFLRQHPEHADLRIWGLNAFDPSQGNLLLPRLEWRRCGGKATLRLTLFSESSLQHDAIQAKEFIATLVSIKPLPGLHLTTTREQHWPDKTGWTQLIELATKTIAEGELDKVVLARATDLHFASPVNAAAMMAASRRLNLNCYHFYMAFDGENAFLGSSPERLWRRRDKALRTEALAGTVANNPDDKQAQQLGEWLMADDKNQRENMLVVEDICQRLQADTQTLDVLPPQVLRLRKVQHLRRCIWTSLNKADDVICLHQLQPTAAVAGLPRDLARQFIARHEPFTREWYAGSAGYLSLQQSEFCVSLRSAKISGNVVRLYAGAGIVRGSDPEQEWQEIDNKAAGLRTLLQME
# What was measured:
# [1] = biological target: T1, EntC, isochorismate synthase from E. coli MG1655 (purified, N-terminal His tag); assay: ICS coupled enzyme assay, EntC (with PaPchB, salicylate accumulation by HPLC); settings: chorismic acid, pH 7.5, 30° C., 0.1 μM enzyme, mean ± s.d., n = 2
# Description: (§1) Kinetic parameters of EntC (A), MenF (B), and PchA (C). The Km and Vmax were generated with OriginPro8 through non-linear regression of the Michaelis-Menten equation. […] All data points are reported as mean±s.d. from two independent experiments (n=2). Error bars are defined as s.d.
# (§2) The kinetic parameters of the ICSs: EntC, MenF, and PchA were determined using coupled assays (Payne et al. Org. Biomol. Chem. 7, 2421-2429 (2009)). […] The reactions lasted 1 min for EntC, and 5 min for MenF and PchA, respectively, and then were terminated by acidification with 20 μL of HCl (20%). […] The kinetic parameters were estimated by using OriginPro8 through non-linear regression of the Michaelis-Menten equation.
# [2] = biological target: T3, PchA, isochorismate synthase from Pseudomonas aeruginosa PAO1 (purified, N-terminal His tag) (Pseudomonas aeruginosa, UniProt Q51508); assay type: biochemical; settings: chorismic acid, pH 7.5, 30° C., mean ± s.d., n = 2
# T3 construct: coupled with PaPchB
# Description: as §1, §2
# [3] = biological target: T2, MenF, isochorismate synthase from E. coli MG1655 (purified, N-terminal His tag); assay: ICS coupled enzyme assay, MenF (with PaPchB, salicylate accumulation by HPLC); settings: chorismic acid, pH 7.5, 30° C., 0.1 μM enzyme, mean ± s.d., n = 2
# Description: as §1, §2
# [4] = system: O=C(O)c1ccccc1O; assay: purified protein, by the assay type; settings: other: MdpB2, salicylate, pH 7.5, 30° C., mean ± s.d., n = 2
# Description: The Km and Vmax values were estimated with OriginPro8 through non-linear regression of the Michaelis-Menten equation. […] All data points are reported as mean±s.d. from two independent experiments (n=2). Error bars are defined as s.d.
# The obtained transformants were pre-inoculated in Luria-Bertani (LB) medium containing 100 μg/ml of ampicillin and grown aerobically at 37° C. overnight. Next day, the pre-inoculums were transferred into 50 ml of fresh LB medium at a volume ratio of 1:100. The cultures were left to grow at 37° C. till the OD600 values reached 0.6-0.8 and then induced with 1.0 mM IPTG. Protein expression was conducted at 30° C. for another 5 h. […] The BCA kit (Pierce Chemicals) was used to estimate protein concentrations. The SCL enzyme assays were performed according to the method described by Ishiyama et al. with modifications (Ishiyama et al. Appl. Environ. Microbiol. 70, 1297-1306 (2004)).
# [5] = system: conversion of salicylate to 4HC; assay: In vitro complementation assay, salicylate to 4HC in crude extract of E. coli/pZE-EPBS; settings: purified enzyme supplemented into crude extract with required cofactors; crude extract alone 0.18 mg/L/h
# Description: The E. coli strain carrying the plasmid pZE-EPBS was pre-inoculated into 3 ml LB liquid medium containing 100 μg/ml of ampicillin and grown at 37° C. overnight with shaking at 300 rpm. In the following day, 1 ml of the preinoculum was added to 50 ml of fresh M9Y medium. The culture was left to grow at 37° C. till the OD600 value reached around 0.6 and then induced with 0.5 mM IPTG. The expression of the pathway enzymes was conducted at 30° C. for another 5 hours. The cells were harvested and re-suspended in 2 ml of Tris-HCl buffer (100 mM, pH=7.5), and then lysed by French Press. The soluble fraction was collected by ultra-centrifugation and used as the crude enzyme extract for the complementation assay. […] After 30 min reaction, 100 μl of malonyl-CoA (2 mM) and 50 μl of crude extract with/without purified BIS3 (20 μl) were supplemented into the reaction system. The reactions were finally terminated in another 0.5-2 h by acidification.
# [6] = substrate: C=C(O[C@@H]1C=C(C(=O)O)C=C[C@H]1O)C(=O)O; assay: purified protein, by the assay type; settings: chorismic acid, pH 7.5, 30° C., mean ± s.d., n = 2
# Description: as §1, §2
# T3 sequence (Q51508 whole entry): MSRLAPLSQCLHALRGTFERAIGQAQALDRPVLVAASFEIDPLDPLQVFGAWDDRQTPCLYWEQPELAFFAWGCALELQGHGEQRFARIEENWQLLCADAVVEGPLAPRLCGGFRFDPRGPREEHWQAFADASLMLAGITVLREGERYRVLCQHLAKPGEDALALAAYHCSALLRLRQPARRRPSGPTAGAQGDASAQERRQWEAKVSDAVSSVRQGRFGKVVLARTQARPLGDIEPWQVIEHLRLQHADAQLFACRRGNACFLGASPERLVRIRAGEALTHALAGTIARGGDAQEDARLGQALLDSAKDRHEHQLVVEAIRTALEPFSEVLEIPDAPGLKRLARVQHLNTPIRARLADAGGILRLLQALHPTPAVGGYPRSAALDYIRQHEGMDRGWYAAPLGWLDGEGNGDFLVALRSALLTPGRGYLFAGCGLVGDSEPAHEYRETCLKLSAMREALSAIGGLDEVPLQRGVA
molecule,measurement,setting,value
C=C(O[C@@H]1C=C(C(=O)O)C=C[C@H]1O)C(=O)O [chorismic acid],kcat,[1],2.12 S^−1 and 2.12 ± 0.07 S^−1
same,kcat,[2]; 0.1 μM enzyme,0.20 S^−1 and 0.20 ± 0.01 S^−1
same,Km,[2],3.69 ± 0.53 µM
same,kcat,[3],0.13 S^−1 and 0.13 ± 0.01 S^−1
"MdpB2, salicylate:CoA ligase from Actinomadura madurae ATCC39144 (purified, N-terminal His tag) (Actinomadura madurae)",Km,[4],8.53 ± 0.94 µM
same,kcat,[4],1.18 ± 0.03 s⁻¹
same,kcat/Km,[4],138000 M⁻¹ s⁻¹
"BIS3: Biphenyl synthase from Sorbus aucuparia, 4HC-forming enzyme (protein, UniProt D2DRC5 1-388, looked up) 4-hydroxycoumarin synthase 2: MAPVVKNEPQHAKILAIGTANPPNVFHQKDYPDFLFRVTKNEHRTDLREKFDRICEKSRTKKRYLHLTEEMLKANPNIYTYGAPSLNVRQDICNIEVPKLGQEASLKAIKEWGQPISKITHLIFCTASCVDMPGCDFQLIKLLGLDPSVTRTMIYEAGCYAGATVLRMAKDFAENNKGARVLVVCAEITTVFFHGLTDTHLDILVGQALFADGASAVIVGANPEPEIERPLFEIVACRQTILPNSEHGVVANIREMGFNYYLSGDVPKFVGGNVVDFMTKTFEKVDGKNKDWNSLFFSVHPGGPAIVDQVEEKLGLKEGKLRATRHVLSEYGNMGAPTVHFILDEMRNKSIEEGKTTTGEGLEWGVVIGIGPGLTVETAVLRSEFITY",rate of conversion of salicylate to 4HC,[5],7.83 mg/L/h
"EntC, isochorismate synthase from E. coli MG1655 (purified, N-terminal His tag) (Escherichia coli K-12) (protein) MDTSLAEEVQQTMATLAPNRFFFMSPYRSFTTSGCFARFDEPAVNGDSPDSPFQQKLAALFADAKAQGIKNPVMVGAIPFDPRQPSSLYIPESWQSFSRQEKQASARRFTRSQSLNVVERQAIPEQTTFEQMVARAAALTATPQVDKVVLSRLIDITTDAAIDSGVLLERLIAQNPVSYNFHVPLADGGVLLGASPELLLRKDGERFSSIPLAGSARRQPDEVLDREAGNRLLASEKDRHEHELVTQAMKEVLRERSSELHVPSSPQLITTPTLWHLATPFEGKANSQENALTLACLLHPTPALSGFPHQAATQVIAELEPFDRELFGGIVGWCDSEGNGEWVVTIRCAKLRENQVRLFAGAGIVPASSPLGEWRETGVKLSTMLNVFGLH",Km,[6]; other: EntC,11.93 ± 1.37 µM
"MenF, isochorismate synthase from E. coli MG1655 (purified, N-terminal His tag) (Escherichia coli K-12) (protein) MQSLTTALENLLRHLSQEIPATPGIRVIDIPFPLKDAFDALSWLASQQTYPQFYWQQRNGDEEAVVLGAITRFTSLDQAQRFLRQHPEHADLRIWGLNAFDPSQGNLLLPRLEWRRCGGKATLRLTLFSESSLQHDAIQAKEFIATLVSIKPLPGLHLTTTREQHWPDKTGWTQLIELATKTIAEGELDKVVLARATDLHFASPVNAAAMMAASRRLNLNCYHFYMAFDGENAFLGSSPERLWRRRDKALRTEALAGTVANNPDDKQAQQLGEWLMADDKNQRENMLVVEDICQRLQADTQTLDVLPPQVLRLRKVQHLRRCIWTSLNKADDVICLHQLQPTAAVAGLPRDLARQFIARHEPFTREWYAGSAGYLSLQQSEFCVSLRSAKISGNVVRLYAGAGIVRGSDPEQEWQEIDNKAAGLRTLLQME",Km,[6]; other: MenF,6.75 ± 2.99 µM
